Measured values from US20130231465A1 (HEMHOLTZ ZENTRUM MUNCHEN DEUTCHES FORSCHUNGSZENTRUM FUR …, published 2013).

Target: CA-XII as used in the enzyme inhibition assay (Homo sapiens (Human), UniProt O43570 25-301, limits assumed)
Test: cell-based or functional assay

Sequence of CA-XII as used in the enzyme inhibition assay (O43570 25-301 limits assumed): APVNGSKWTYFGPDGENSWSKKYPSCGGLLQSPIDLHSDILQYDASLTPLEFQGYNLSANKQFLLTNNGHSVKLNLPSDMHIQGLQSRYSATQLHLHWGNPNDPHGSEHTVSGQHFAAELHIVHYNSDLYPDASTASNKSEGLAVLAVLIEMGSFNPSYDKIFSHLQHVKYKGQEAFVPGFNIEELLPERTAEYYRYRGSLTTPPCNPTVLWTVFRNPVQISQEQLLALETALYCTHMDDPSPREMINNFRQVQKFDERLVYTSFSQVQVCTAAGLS

inhibition of CA-XII (enzyme activity), IC50: 6.14 nM
B1: EXO 6A10 (antibody, V domains shown)
VH: EVKLEESGPGLVQPSETLSLTCTVSGFSLTTYSVSWVRQPSGKGPEWMGRMWYDGDTVYNSALKSRLSISRDTSKNQVFLKMNSLETDETGTYYCTRDFGYFDGSSPFDYWGQGVMVTVSS
VL: DIVMTQTPATLSVTPGESVSLSCRASQGISTSIHWYQQKSNESPRLLIKFASQSISGIPSRFSGSGSGTDFTLSINRVESEDFSVYFCQQTYSLPYTFGAGTKLELK
